Results reported in US20230331800A1.

Assays:
[1] = molecular target: IL2 receptors on lymphocyte populations of human PBMCs (human) (UniProt P01589); assay: cell-based or functional assay
[2] = molecular target: OT-I TCR (ovalbumin(257-264)-specific T cell receptor of OT-1 TCR transgenic mouse CD8+ T cells) (mouse); assay: cell-based or functional assay; conditions: scale: orders of magnitude higher potency than T5-IL2M6

Chain of UniProt P01589 (P01589 22-272, chain 1 of 3): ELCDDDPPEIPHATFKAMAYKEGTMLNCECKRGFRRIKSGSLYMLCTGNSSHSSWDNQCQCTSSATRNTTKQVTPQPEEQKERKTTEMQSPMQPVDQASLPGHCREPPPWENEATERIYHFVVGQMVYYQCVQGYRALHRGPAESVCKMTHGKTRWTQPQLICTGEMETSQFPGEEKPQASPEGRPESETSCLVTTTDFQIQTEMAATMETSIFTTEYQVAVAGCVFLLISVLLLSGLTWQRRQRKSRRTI
Chain of UniProt P01589 (P14784 27-551, chain 2 of 3, further chain): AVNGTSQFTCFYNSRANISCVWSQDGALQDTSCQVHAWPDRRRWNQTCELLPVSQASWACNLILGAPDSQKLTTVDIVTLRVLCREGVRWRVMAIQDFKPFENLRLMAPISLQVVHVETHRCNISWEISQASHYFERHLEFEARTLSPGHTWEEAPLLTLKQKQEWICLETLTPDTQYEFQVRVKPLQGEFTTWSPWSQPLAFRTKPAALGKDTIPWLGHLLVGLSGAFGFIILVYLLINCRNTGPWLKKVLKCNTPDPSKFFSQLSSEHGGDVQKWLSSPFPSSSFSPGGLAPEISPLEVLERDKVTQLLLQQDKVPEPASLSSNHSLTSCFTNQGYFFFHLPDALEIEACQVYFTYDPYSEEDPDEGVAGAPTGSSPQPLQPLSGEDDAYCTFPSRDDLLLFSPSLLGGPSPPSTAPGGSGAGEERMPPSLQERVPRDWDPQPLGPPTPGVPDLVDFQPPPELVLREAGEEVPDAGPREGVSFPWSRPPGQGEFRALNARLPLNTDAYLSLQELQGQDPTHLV
Chain of UniProt P01589 (P31785 23-369, chain 3 of 3, further chain): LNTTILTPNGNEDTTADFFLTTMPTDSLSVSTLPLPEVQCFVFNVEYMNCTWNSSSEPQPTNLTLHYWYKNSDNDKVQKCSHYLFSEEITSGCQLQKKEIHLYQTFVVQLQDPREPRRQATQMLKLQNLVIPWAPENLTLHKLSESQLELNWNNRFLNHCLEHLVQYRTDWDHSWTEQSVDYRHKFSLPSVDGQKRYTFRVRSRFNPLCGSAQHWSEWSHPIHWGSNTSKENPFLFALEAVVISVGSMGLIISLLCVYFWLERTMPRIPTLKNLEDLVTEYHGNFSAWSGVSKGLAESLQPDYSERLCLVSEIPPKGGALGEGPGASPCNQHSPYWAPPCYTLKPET

Substance “IL2M2: Human IL2-(GGGGS)4-human IL-2Ra-GGGGS-Fc (Fc fusion)” has a potency in STAT5 phosphorylation on multiple lymphocyte populations (FIG. 12A-C), against IL2M0 (fold less potent than IL2M0) [1] of 100.

In the case of “IL2M5: Fc-GGGGS-human IL2 (N88D, C125A) fusion (Fc fusion)”, the potency in STAT5 phosphorylation on multiple lymphocyte populations (FIG. 14A-C), against IL2M4 (fold less potent than IL2M4) [1] is reported as over 100.

“T4-IL2M6: OVA(257-264)-GCGGS-(GGGGS)2-mB2m-(GGGGS)4-mH2Kb-(GGGGS)4-Fc-(GGGGS)3-hIL2(H16A, F42A) (Fc fusion)” showed a potency in inducing STAT5 phosphorylation in CD8+ OT-I T cells, against T5-IL2M6 [2] of 2.
